Source: doi:10.1101/2025.05.22.655678
Numbering of substitutions follows the chain as printed. In names and notes the source's numbering stands. Like-named read-outs stand apart in the source and are kept apart here.

Legend:
VchI [1] = target: T1, VchI (Vibrio cholerae); test: EMSA
T1 chain: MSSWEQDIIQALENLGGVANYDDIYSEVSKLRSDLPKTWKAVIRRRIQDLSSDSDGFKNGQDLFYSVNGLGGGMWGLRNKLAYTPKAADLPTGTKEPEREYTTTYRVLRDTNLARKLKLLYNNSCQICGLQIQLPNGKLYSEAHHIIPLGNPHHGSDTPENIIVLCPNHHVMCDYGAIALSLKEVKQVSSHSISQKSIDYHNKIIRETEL

VchI [2] = target: T1, VchI; test: EMSA

B1: 60bp-1 (dsDNA)
DNA 1: AGAAGCAGGCCATTATCGCCGGCATGGCGGCCGACGCGCTGGGCTACGTCTTGCTGGCGT
DNA 2: ACGCCAGCAAGACGTAGCCCAGCGCGTCGGCCGCCATGCCGGCGATAATGGCCTGCTTCT
modifications: N6-methyladenine in any context (M.EcoGII)
B1: no binding (VchI [1]).

B2: 59bp-GAG (dsDNA)
DNA 1: TTTTTTTTTTTTTTTTTTTTTTTTTTTTGAGTTTTTTTTTTTTTTTTTTTTTTTTTTTT
DNA 2: AAAAAAAAAAAAAAAAAAAAAAAAAAAACTCAAAAAAAAAAAAAAAAAAAAAAAAAAAA
modifications: N6-methyladenine at A of GAG (position 30, printed M6A); legend says M.EcoGII-methylated
B2: binds (VchI [2]).

B3: ss-59nt-GAG (ssDNA)
DNA: B2 DNA 1
modifications: N6-methyladenine at A of GAG (position 30)
B3: no binding (VchI [2]).

B4: 60bp-2-V (dsDNA)
DNA 1: GGGCTACGTCTTGCTGGCGTTCGCGACTTTTTGCTGGATGGCCTTCCCCATTATGATTCT
DNA 2: AGAATCATAATGGGGAAGGCCATCCAGCAAAAAGTCGCGAACGCCAGCAAGACGTAGCCC
modifications: N6-methyladenine in any context (M.EcoGII)
B4: no binding (VchI [2]).

B5: 60bp-2 (dsDNA)
DNA 1: B4 DNA 1 with T28G, T29C, T30G, T31A, T32G
DNA 2: B4 DNA 2 with A29C, A30T, A31C, A32G, A33C
modifications: N6-methyladenine in any context (M.EcoGII)
B5: binds (VchI [1]).

B6: GCTAG (dsDNA)
DNA 1: B4 DNA 1 with T28G, T29C, T31A, T32G
DNA 2: B4 DNA 2 with A29C, A30T, A32G, A33C
modifications: N6-methyladenine in any context (M.EcoGII)
B6: no binding (VchI [2]).

B7: GCGAT (dsDNA)
DNA 1: B4 DNA 1 with T28G, T29C, T30G, T31A
DNA 2: B4 DNA 2 with A30T, A31C, A32G, A33C
modifications: N6-methyladenine in any context (M.EcoGII)
B7: no binding (VchI [2]).

B8: CCGAG (dsDNA)
DNA 1: B4 DNA 1 with T28C, T29C, T30G, T31A, T32G
DNA 2: B4 DNA 2 with A29C, A30T, A31C, A32G, A33G
modifications: N6-methyladenine in any context (M.EcoGII)
B8: binds (VchI [2]).

B9: GGGAG (dsDNA)
DNA 1: B4 DNA 1 with T28G, T29G, T30G, T31A, T32G
DNA 2: B4 DNA 2 with A29C, A30T, A31C, A32C, A33C
modifications: N6-methyladenine in any context (M.EcoGII)
B9: binds (VchI [2]).

B10: GCGAA (dsDNA)
DNA 1: B4 DNA 1 with T28G, T29C, T30G, T31A, T32A
DNA 2: B4 DNA 2 with A29T, A30T, A31C, A32G, A33C
modifications: N6-methyladenine in any context (M.EcoGII)
B10: no binding (VchI [2]).

B11: TCGAG (dsDNA)
DNA 1: B4 DNA 1 with T29C, T30G, T31A, T32G
DNA 2: B4 DNA 2 with A29C, A30T, A31C, A32G
modifications: N6-methyladenine in any context (M.EcoGII)
B11: binds (VchI [2]).

B12: GTGAG (dsDNA)
DNA 1: B4 DNA 1 with T28G, T30G, T31A, T32G
DNA 2: B4 DNA 2 with A29C, A30T, A31C, A33C
modifications: N6-methyladenine in any context (M.EcoGII)
B12: binds (VchI [2]).

B13: GCCAG (dsDNA)
DNA 1: B4 DNA 1 with T28G, T29C, T30C, T31A, T32G
DNA 2: B4 DNA 2 with A29C, A30T, A31G, A32G, A33C
modifications: N6-methyladenine in any context (M.EcoGII)
B13: no binding (VchI [2]).

B14: GCGAC (dsDNA)
DNA 1: B4 DNA 1 with T28G, T29C, T30G, T31A, T32C
DNA 2: B4 DNA 2 with A29G, A30T, A31C, A32G, A33C
modifications: N6-methyladenine in any context (M.EcoGII)
B14: no binding (VchI [2]).

B15: GAGAG (dsDNA)
DNA 1: B4 DNA 1 with T28G, T29A, T30G, T31A, T32G
DNA 2: B4 DNA 2 with A29C, A30T, A31C, A32T, A33C
modifications: N6-methyladenine in any context (M.EcoGII)
B15: binds (VchI [2]).

B16: GCAAG (dsDNA)
DNA 1: B4 DNA 1 with T28G, T29C, T30A, T31A, T32G
DNA 2: B4 DNA 2 with A29C, A30T, A31T, A32G, A33C
modifications: N6-methyladenine in any context (M.EcoGII)
B16: no binding (VchI [2]).

B17: 60bp-3 (dsDNA)
DNA 1: GCCTTCCCCATTATGATTCTTCTCGCTTCCGGCGGCATCGGGATGCCCGCGTTGCAGGCC
DNA 2: GGCCTGCAACGCGGGCATCCCGATGCCGCCGGAAGCGAGAAGAATCATAATGGGGAAGGC
modifications: N6-methyladenine in any context (M.EcoGII)
B17: binds (VchI [1]).

B18: 60bp-5 (dsDNA)
DNA 1: TGACGACCATCAGGGACAGCTTCAAGGATCGCTCGCGGCTCTTACCAGCCTAACTTCGAT
DNA 2: ATCGAAGTTAGGCTGGTAAGAGCCGCGAGCGATCCTTGAAGCTGTCCCTGATGGTCGTCA
modifications: N6-methyladenine in any context (M.EcoGII)
B18: binds (VchI [1]).

B19: 60bp-7 (dsDNA)
DNA 1: CGGCGATTTATGCCGCCTCGGCGAGCACATGGAACGGGTTGGCATGGATTGTAGGCGCCG
DNA 2: CGGCGCCTACAATCCATGCCAACCCGTTCCATGTGCTCGCCGAGGCGGCATAAATCGCCG
modifications: N6-methyladenine in any context (M.EcoGII)
B19: binds (VchI [1]).

B20: 60bp-7-V (dsDNA)
DNA 1: B19 DNA 1 with G21T, C22T, G23T, A24T, G25T
DNA 2: B19 DNA 2 with C36A, T37A, C38A, G39A, C40A
modifications: N6-methyladenine in any context (M.EcoGII)
B20: binds (VchI [2]).

B21: 60bp-4 (dsDNA)
DNA 1: GGATGCCCGCGTTGCAGGCCATGCTGTCCAGGCAGGTAGATGACGACCATCAGGGACAGC
DNA 2: GCTGTCCCTGATGGTCGTCATCTACCTGCCTGGACAGCATGGCCTGCAACGCGGGCATCC
modifications: N6-methyladenine in any context (M.EcoGII)
B21: no binding (VchI [1]).
